The record followed here is patent publication US20240352110A1.

The target of test [1] is Rf IgM contained in native samples from patients with elevated Rf levels. Description: Elecsys µ-capture (anti-IgM-Ru detection); native sample D4, Rf 566 IU/mL.
The target is the same in test [2]. Description: Elecsys µ-capture (anti-IgM-Ru detection); native sample E2, Rf 423 IU/mL.
For test [3] the target is unchanged. Description: Elecsys µ-capture (anti-IgM-Ru detection); native sample RF-3-11, Rf 383 IU/mL.
For test [4] the target is unchanged. Description: Elecsys µ-capture (anti-IgM-Ru detection); native sample RF_3_10, Rf 322 IU/mL.
For test [5] the target is unchanged. Briefly: Elecsys µ-capture (anti-IgM-Ru detection); native sample E8, Rf 339 IU/mL.
Test [6] has the same target. Briefly: Elecsys µ-capture (anti-IgM-Ru detection); native sample RF_3_1, Rf 430 IU/mL.
For test [7] the target is unchanged. Briefly: Elecsys µ-capture (anti-IgM-Ru detection); native sample RF_3_3, Rf 394 IU/mL.
Test [8] has the same target. Description: Elecsys µ-capture (anti-IgM-Ru detection); native sample RF_3_5, Rf 402 IU/mL.
Test [9] shares this target. Briefly: Elecsys µ-capture (anti-IgM-Ru detection); native sample RF_2_33, Rf 377 IU/mL.
Test [10] has the same target. Briefly: Elecsys µ-capture (anti-IgM-Ru detection); native sample RF_3_7, Rf 318 IU/mL.
The target is the same in test [11]. Briefly: Elecsys µ-capture (anti-IgM-Ru detection); native sample RF_3_8, Rf 402 IU/mL.
Test [12] has the same target. Description: Elecsys µ-capture (anti-IgM-Ru detection); native sample RF-3-2, Rf 401 IU/mL.
Test [13] has the same target. Briefly: Elecsys µ-capture (anti-IgM-Ru detection); native sample RF_3_12, Rf 457 IU/mL.
For test [14] the target is unchanged. Description: Elecsys µ-capture (anti-IgM-Ru detection); native sample RF_3_9, Rf 439 IU/mL.
The target is the same in test [15]. Description: Elecsys µ-capture (anti-IgM-Ru detection); native sample RF_2_32, Rf 655 IU/mL.
For test [16] the target is unchanged. Description: Elecsys µ-capture (anti-IgM-Ru detection); native sample RF_3_13, Rf 1492 IU/mL.
The target is the same in test [17]. Briefly: Elecsys µ-capture (anti-IgM-Ru detection); native sample RF_2_31, Rf 457 IU/mL.
Test [18] has the same target. Briefly: Elecsys µ-capture (anti-IgM-Ru detection); native sample A5, Rf 466 IU/mL.
For test [19] the target is unchanged. Description: Elecsys µ-capture (anti-IgM-Ru detection); native sample RF_3_6, Rf 371 IU/mL.
Test [20] shares this target. Briefly: Elecsys µ-capture (anti-IgM-Ru detection); native sample D8, Rf 572 IU/mL.
Test [21] has the same target. Briefly: Elecsys µ-capture (anti-IgM-Ru detection); native sample B6, Rf 386 IU/mL.
The target is the same in test [22]. Briefly: Elecsys µ-capture (anti-IgM-Ru detection); native sample RF-3-4, Rf 321 IU/mL.
Test [23] has the same target. Briefly: Elecsys µ-capture (anti-IgM-Ru detection); native sample C9, Rf 640 IU/mL.

B1: 21F12 F(ab′)2 fragment (protein)
VH: EVQLQQSGPELLKPGASVKISCKASGFTFTDYTMHWMKQSHGKSLEWIGGINPNSGGTIYNEKFKDKATLTVDKSSRTAYMELRSLTSEDSAVYFCTRGVYDGYFYWGQGTLVTVSA
VL: DVVMTQTPLSLPVSLGDQASISCRSSQSLVYSNGNTFLHWYLQKPGQSPKLLIYKVSTRFSGVPDRFSGSGSGSDFTLKISRVEAEDLGIYFCSQTTHAPFTFGSGTKLAIR
For the molecule B1, the Elecsys counts in test [1] was found to be 13300 counts; in test [2], 102000 counts; in test [3], 69300 counts; in test [4], 8620 counts; in [5], 118000 counts; in test [6], 19700 counts. Moreover, the Elecsys counts was determined as 5850 counts in test [7]; 10400 counts in test [8]; 9430 counts in [9]; 7580 counts in [10]; 6820 counts in [11]; 282000 counts in test [12]. In addition, the Elecsys counts in [13] came out at 5670 counts; in test [14], 14500 counts; in [15], 4220 counts; in test [16], 4740 counts; in [17], 27300 counts; in [18], 11600 counts. The Elecsys counts in test [19] is 24500 counts; in test [20] it was 242000 counts; in test [21], 103000 counts; in test [22], 99600 counts; in [23] it was 8240 counts.
